Test results from patent US20220251236A1 (Boehringer Ingelheim, published 2022).

Legend:
[1] = biological target: T1, T CELLS (human, UniProt P07766;P09693); assay: flow cytometry titration on purified human T cells, PE anti-human secondary, x-fold over background
T1 construct: native, on the surface of purified human T cells; The sheets print only 'T CELLS'; also called human CD3 on purified human T cells; CD3 epsilon/gamma complex
Description: (§1) Cells (T cells or human SCLC cells) were stained with increasing concentrations of two-step purified DLL3/CD3 binding proteins with increasing concentrations in FACS buffer (PBS/0.5% BSA/0.05% sodium azide). Bound molecules were detected with PE-conjugated anti-human secondary antibody (Sigma-Aldrich, #P8047).

[2] = biological target: T2, EGF1+2; assay: flow cytometry on HEK293 cells expressing the DLL3 subdomain construct, 1.6 nM binder, PE anti-human secondary, control: secondary antibody only
T2 construct: also called Hu DLL3 EGF1+2 on HEK293 cells
T2 membrane-anchored DLL3 subdomain construct: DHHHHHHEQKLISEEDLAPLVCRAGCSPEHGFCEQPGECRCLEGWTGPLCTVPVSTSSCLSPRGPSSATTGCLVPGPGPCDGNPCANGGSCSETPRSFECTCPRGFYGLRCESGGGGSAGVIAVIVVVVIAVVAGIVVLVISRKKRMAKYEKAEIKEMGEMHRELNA
Method in brief: (§2)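 Binders tested on HEK293 cells displaying the DLL3 subdomain construct; bound molecules detected by flow cytometry using PE-conjugated anti-human secondary antibody. Negative control: cells with secondary antibody only.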

[3] = biological target: T3, EGF3+4; assay: as above
T3 construct: also called Hu DLL3 EGF3+4 on HEK293 cells
T3 membrane-anchored DLL3 subdomain construct: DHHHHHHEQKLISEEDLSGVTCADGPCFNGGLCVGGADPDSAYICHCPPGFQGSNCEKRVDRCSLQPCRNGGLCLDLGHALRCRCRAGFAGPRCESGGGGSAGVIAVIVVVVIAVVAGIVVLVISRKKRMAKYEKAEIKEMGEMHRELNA
Method in brief: as §2

[4] = biological target: T4, EGF4+5; assay: as above
T4 construct: also called Hu DLL3 EGF4+5 on HEK293 cells
T4 membrane-anchored DLL3 subdomain construct: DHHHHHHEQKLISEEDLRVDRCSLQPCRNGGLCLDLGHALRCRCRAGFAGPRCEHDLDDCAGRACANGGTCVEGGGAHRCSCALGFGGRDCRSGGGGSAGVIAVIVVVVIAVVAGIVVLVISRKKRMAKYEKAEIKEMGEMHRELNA
Method in brief: as §2

[5] = biological target: T5, human DLL3 (endogenous, on SCLC cell lines NCI-H82 and SHP77 and in SCLC tissue) (human, UniProt Q9NYJ7 27-618); assay: flow cytometry titration on SHP77 cells, PE anti-human secondary, x-fold over background
T5 construct: whole, on cells; also called SCLC cell lines expressing DLL3
T5 sequence (looked up): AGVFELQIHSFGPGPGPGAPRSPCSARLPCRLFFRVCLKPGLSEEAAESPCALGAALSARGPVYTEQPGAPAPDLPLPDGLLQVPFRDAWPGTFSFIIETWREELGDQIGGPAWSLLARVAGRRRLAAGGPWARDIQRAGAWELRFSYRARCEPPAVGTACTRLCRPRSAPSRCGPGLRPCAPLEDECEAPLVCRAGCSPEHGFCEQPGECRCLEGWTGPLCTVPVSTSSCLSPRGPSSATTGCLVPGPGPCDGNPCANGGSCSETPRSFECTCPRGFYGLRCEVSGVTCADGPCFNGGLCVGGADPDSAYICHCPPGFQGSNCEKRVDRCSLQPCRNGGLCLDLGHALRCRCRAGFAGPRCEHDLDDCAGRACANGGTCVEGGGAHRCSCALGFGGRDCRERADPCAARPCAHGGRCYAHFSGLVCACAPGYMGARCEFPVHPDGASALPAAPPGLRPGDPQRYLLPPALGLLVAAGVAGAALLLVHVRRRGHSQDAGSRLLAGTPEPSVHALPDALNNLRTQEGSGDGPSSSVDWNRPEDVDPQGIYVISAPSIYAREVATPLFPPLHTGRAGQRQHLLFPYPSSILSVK
Description: as §1

T1 sequence (P07766 23-207, chain 1 of 2): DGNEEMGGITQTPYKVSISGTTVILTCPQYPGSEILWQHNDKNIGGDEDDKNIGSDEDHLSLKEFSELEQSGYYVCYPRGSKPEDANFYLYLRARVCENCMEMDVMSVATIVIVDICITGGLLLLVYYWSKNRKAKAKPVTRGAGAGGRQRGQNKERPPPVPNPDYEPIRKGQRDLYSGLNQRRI
T1 sequence (P09693 23-182, chain 2 of 2): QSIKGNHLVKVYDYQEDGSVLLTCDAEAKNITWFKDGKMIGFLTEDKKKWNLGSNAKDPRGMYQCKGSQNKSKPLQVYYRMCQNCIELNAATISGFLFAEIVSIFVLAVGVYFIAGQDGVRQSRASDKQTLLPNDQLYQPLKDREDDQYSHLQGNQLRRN

B1: DLL3#2/CD3#1 (bispecific antibody, human IgG1, kappa, lambda, L234A L235A)
chain 1: DIQMTQSPSAMSASVGDRVTITCRASQGISNYLAWFQQKPGKVPEPLIYAASSLQSGVPSRFSGSGSVTEFTLTISSLQPEDFATYYCLQHNSSPYTFGQGTKLEIKRTVAAPSVFIFPPSDEQLKSGTASVVCLLNNFYPREAKVQWKVDNALQSGNSQESVTEQDSKDSTYSLSSTLTLSKADYEKHKVYACEVTHQGLSSPVTKSFNRGECGGGGSEGKSSGSGSESKSTEGKSSGSGSESKSTGGGGSQVQLVQSGAEVKKPGASVKVSCKASGYTFTSYYMHWVRQAPGQGLEWMGIINPSGGSTSYAQKFQGRVTMTRDTSTSTVYMELSSLRSEDTAVYYCARGEAVGGNYYYYGMDVWGQGTTVTVSSASTKGPSVFPLAPSSKSTSGGTAALGCLVKDYFPEPVTVSWNSGALTSGVHTFPAVLQSSGLYSLSSVVTVPSSSLGTQTYICNVNHKPSNTKVDKRVEPKSCDKTHTCPPCPAPEAAGGPSVFLFPPKPKDTLMISRTPEVTCVVVDVSHEDPEVKFNWYVDGVEVHNAKTKPREEQYNSTYRVVSVLTVLHQDWLNGKEYKCKVSNKALPAPIEKTISKAKGQPREPQVYTLPPSREEMTKNQVSLWCLVKGFYPSDIAVEWESNGQPENNYKTTPPVLDSDGSFFLYSKLTVDKSRWQQGNVFSCSVMHEALHNHYTQKSLSLSPG
chain 2: EAVVTQEPSLTVSPGGTVTLTCRSSTGAVTTSNYANWVQEKPGQLPRGLIGGTNKRAPWVPARFSGSLLGGKAALTLSGAQPEDEAEYFCALWYSNLWVFGGGTKLTVLGQPKAAPSVTLFPPSSEELQANKATLVCLISDFYPGAVKVAWKADGSPVNTGVETTTPSKQSNNKYAASSYLSLTPEQWKSHRSYSCQVTHEGSTVEKTVAPAECSGGGGSEGKSSGSGSESKSTEGKSSGSGSESKSTGGGGSEVQLVESGGGLVQPGGSLKLSCAASGFTFNTYAMNWVRQAPGKGLEWVARIRSKYNNYATYYADSVKDRFTISRDDSKNTAYLQMNNLKTEDTAVYYCVRHGNFGNSYVSWFAYWGQGTLVTVSAASTKGPSVFPLAPSSKSTSGGTAALGCLVKDYFPEPVTVSWNSGALTSGVHTFPAVLQSSGLYSLSSVVTVPSSSLGTQTYICNVNHKPSNTKVDKRVEPKSCDKTHTCPPCPAPEAAGGPSVFLFPPKPKDTLMISRTPEVTCVVVDVSHEDPEVKFNWYVDGVEVHNAKTKPREEQYNSTYRVVSVLTVLHQDWLNGKEYKCKVSNKALPAPIEKTISKAKGQPREPQVYTLPPSREEMTKNQVSLSCAVKGFYPSDIAVEWESNGQPENNYKTTPPVLDSDGSFFLVSKLTVDKSRWQQGNVFSCSVMHEALHNRFTQKSLSLSPG
notes: Heterodimer of one DLL3 chain and one CD3 chain (scFab-Fc, knob-in-hole)
B1 was tested, and the “EC50 (read off the curve)” value [1] was roughly 10 nM.

B2: DLL3#5/CD3#1 (bispecific antibody, human IgG1, kappa, lambda, L234A L235A)
chain 1: not shown
chain 2: B1 chain 2
notes: as for B1
B2: binds [2].

B3: DLL3#4/CD3#1 (bispecific antibody, human IgG1, kappa, lambda, L234A L235A)
chain 1: not shown
chain 2: B1 chain 2
notes: as for B1
With B3 the binding result [3] was “binds”, the binding result [4] was “binds” and the “EC50 (read off the curve)” value [5] was roughly 2 nM.
